Binding signal data for 39 molecules are collected here from article PMC10681739, “High-throughput data and modeling reveal insights into the mechanisms of cooperative DNA-binding by transcription factor proteins”.

The target in this data set is T1, ETS1 (Homo sapiens, UniProt P14921).
T1 sequence: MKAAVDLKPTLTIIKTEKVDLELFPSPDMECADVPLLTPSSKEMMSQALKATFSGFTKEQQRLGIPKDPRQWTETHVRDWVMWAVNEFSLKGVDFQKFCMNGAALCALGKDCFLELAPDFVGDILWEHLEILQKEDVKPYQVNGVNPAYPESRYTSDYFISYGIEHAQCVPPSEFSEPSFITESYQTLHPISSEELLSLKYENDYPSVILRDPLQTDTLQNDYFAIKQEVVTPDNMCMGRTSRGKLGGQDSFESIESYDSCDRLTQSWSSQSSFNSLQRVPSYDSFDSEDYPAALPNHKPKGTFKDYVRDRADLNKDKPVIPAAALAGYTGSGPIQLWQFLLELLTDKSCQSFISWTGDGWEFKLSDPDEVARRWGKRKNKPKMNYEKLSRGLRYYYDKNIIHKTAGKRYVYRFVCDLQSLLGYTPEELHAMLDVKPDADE
In words: gcPBM; 1 nM ETS1. As to conditions: tags: N-terminal GST (pDEST15), kept (PMC6008103); label: surface-attached array probe.

B1: Table S2 C row 60 (dsDNA)
DNA 1: AGACTCAGGTGGTAAACCGCAGGCCATTTACATACC
DNA 2: GGTATGTAAATGGCCTGCGGTTTACCACCTGAGTCT
On to B1, for which the binding signal is 408 PBM fluorescence, median of replicate spots.

B2: Table S2 C row 136 (dsDNA)
DNA 1: CAAATGAGGTGCCAAGCCACAAAAAGCATTTGCGTC
DNA 2: GACGCAAATGCTTTTTGTGGCTTGGCACCTCATTTG
B2: the binding signal was 388 PBM fluorescence, median of replicate spots.

B3: Table S2 C row 2 (dsDNA)
DNA 1: GTGATGCCGACAGGCCGTGGTTTCTGAGAAACACCA
DNA 2: TGGTGTTTCTCAGAAACCACGGCCTGTCGGCATCAC
On to B3, for which the binding signal was 392 PBM fluorescence, median of replicate spots.

B4: Table S2 C row 159 (dsDNA)
DNA 1: GGAGAGGAGAAAATGCCCACAGGGTACATGGAAAGC
DNA 2: GCTTTCCATGTACCCTGTGGGCATTTTCTCCTCTCC
Regarding B4, the binding signal was 409 PBM fluorescence, median of replicate spots.

B5: Table S2 C row 133 (dsDNA)
DNA 1: TTGTAGGGATGACTGACCACAAAAGACAGTGACTCA
DNA 2: TGAGTCACTGTCTTTTGTGGTCAGTCATCCCTACAA
B5: the binding signal is 398 PBM fluorescence, median of replicate spots.

B6: Table S2 C row 181 (dsDNA)
DNA 1: CACAGGCAGTTCCAGACCGCAGCCTTCCAGGGCCCT
DNA 2: AGGGCCCTGGAAGGCTGCGGTCTGGAACTGCCTGTG
Turning to B6, the binding signal was 391 PBM fluorescence, median of replicate spots.

B7: Table S2 C row 134 (dsDNA)
DNA 1: AAGTCTACAGCTCTTTGAGGTTCATGTGTGACTCTA
DNA 2: TAGAGTCACACATGAACCTCAAAGAGCTGTAGACTT
For the molecule B7, the binding signal is 394 PBM fluorescence, median of replicate spots.

B8: Table S2 C row 58 (dsDNA)
DNA 1: CATCTGCAGACACTGTGTGGTTTCCAGGTTCCCGAG
DNA 2: CTCGGGAACCTGGAAACCACACAGTGTCTGCAGATG
B8: the binding signal is 406 PBM fluorescence, median of replicate spots.

B9: Table S2 B row 2766 (dsDNA)
DNA 1: TTTGCAAATCCAGAGCGGAGACTTCCGGTGGCCTAG
DNA 2: CTAGGCCACCGGAAGTCTCCGCTCTGGATTTGCAAA
Consider B9, for which the binding signal was 14400 PBM fluorescence, median of replicate spots.

B10: Table S2 B row 665 (dsDNA)
DNA 1: CTCCGTGCCACTACAGCCACTTCCTGCCTTGAAAAC
DNA 2: GTTTTCAAGGCAGGAAGTGGCTGTAGTGGCACGGAG
B10: the binding signal is 13300 PBM fluorescence, median of replicate spots.

B11: Table S2 C row 47 (dsDNA)
DNA 1: CCTACAAATTCCAGCTGTGGTCAGCTGGTGAGCTCT
DNA 2: AGAGCTCACCAGCTGACCACAGCTGGAATTTGTAGG
As to B11, the binding signal was 408 PBM fluorescence, median of replicate spots.

B12: Table S2 C row 69 (dsDNA)
DNA 1: CTGGCAAAGCAGAAGTGTGGTTTCAGAGTCTCCCTC
DNA 2: GAGGGAGACTCTGAAACCACACTTCTGCTTTGCCAG
For B12, the binding signal is 405 PBM fluorescence, median of replicate spots.

B13: Table S2 C row 74 (dsDNA)
DNA 1: GTTAAAACAAAGCAAGCCACAGTGTGTGTCCACAGA
DNA 2: TCTGTGGACACACACTGTGGCTTGCTTTGTTTTAAC
With B13, the binding signal is 382 PBM fluorescence, median of replicate spots.

B14: Table S2 C row 6 (dsDNA)
DNA 1: TAAGCCCCGCGTGCCTGTGGGTATTTGAAAGCTGAA
DNA 2: TTCAGCTTTCAAATACCCACAGGCACGCGGGGCTTA
Turning to B14, the binding signal was 385 PBM fluorescence, median of replicate spots.

B15: Table S2 C row 128 (dsDNA)
DNA 1: AAGATATGGGCTACTTGTGGTTTACTCTGTCTGCTA
DNA 2: TAGCAGACAGAGTAAACCACAAGTAGCCCATATCTT
Regarding B15, the binding signal is 392 PBM fluorescence, median of replicate spots.

B16: Table S2 C row 93 (dsDNA)
DNA 1: ATGCTGTCAAAAACTACCACAGACTGATTGGCTTAA
DNA 2: TTAAGCCAATCAGTCTGTGGTAGTTTTTGACAGCAT
B16: the binding signal was 399 PBM fluorescence, median of replicate spots.

B17: Table S2 C row 192 (dsDNA)
DNA 1: CAAGGTGGCAGTGATTGTGGCCGGCCACCTATCTGA
DNA 2: TCAGATAGGTGGCCGGCCACAATCACTGCCACCTTG
For B17, the binding signal was 408 PBM fluorescence, median of replicate spots.

B18: Table S2 C row 112 (dsDNA)
DNA 1: ACTGTCAAACATTCGACCACAATCTCTGAGGCTGGG
DNA 2: CCCAGCCTCAGAGATTGTGGTCGAATGTTTGACAGT
On to B18, for which the binding signal was 409 PBM fluorescence, median of replicate spots.

B19: Table S2 C row 158 (dsDNA)
DNA 1: AGGTATTAAACAGCAACCGCATTGCCAAGCACTGTG
DNA 2: CACAGTGCTTGGCAATGCGGTTGCTGTTTAATACCT
As for B19, the binding signal is 391 PBM fluorescence, median of replicate spots.

B20: Table S2 B row 1078 (dsDNA)
DNA 1: TGCAGCTTCCTGTCTGAGGCTTTTTGGTCCTTTCAT
DNA 2: ATGAAAGGACCAAAAAGCCTCAGACAGGAAGCTGCA
For B20, the binding signal was 12900 PBM fluorescence, median of replicate spots.

B21: Table S2 C row 72 (dsDNA)
DNA 1: ACTACCTTCTTGGTAACCACAAGTCTCAGAGGTACT
DNA 2: AGTACCTCTGAGACTTGTGGTTACCAAGAAGGTAGT
Take B21: the binding signal is 394 PBM fluorescence, median of replicate spots.

B22: Table S2 C row 115 (dsDNA)
DNA 1: TGGGGCTTCTCGTTGGCCACAAGTTCAATTTGAGCC
DNA 2: GGCTCAAATTGAACTTGTGGCCAACGAGAAGCCCCA
With B22, the binding signal was 381 PBM fluorescence, median of replicate spots.

B23: Table S2 C row 125 (dsDNA)
DNA 1: CATTTCAGTAGACTCACCACAAGGTTGTGGCCAGAA
DNA 2: TTCTGGCCACAACCTTGTGGTGAGTCTACTGAAATG
With B23, the binding signal is 399 PBM fluorescence, median of replicate spots.

B24: Table S2 C row 33 (dsDNA)
DNA 1: ATCTCAGTTAAGCAGACCACACTTTACGTTCTAGTT
DNA 2: AACTAGAACGTAAAGTGTGGTCTGCTTAACTGAGAT
As to B24, the binding signal is 393 PBM fluorescence, median of replicate spots.

B25: Table S2 B row 672 (dsDNA)
DNA 1: GGCTTCCGGCGGGGTACCCTCCTCTGTAGGCGGGGC
DNA 2: GCCCCGCCTACAGAGGAGGGTACCCCGCCGGAAGCC
Take B25: the binding signal is 13700 PBM fluorescence, median of replicate spots.

B26: Table S2 C row 23 (dsDNA)
DNA 1: GCTTTGCACAGCTTTGCCACAAAGCCCAGTCTGTGT
DNA 2: ACACAGACTGGGCTTTGTGGCAAAGCTGTGCAAAGC
Turning to B26, the binding signal is 399 PBM fluorescence, median of replicate spots.

B27: Table S2 C row 20 (dsDNA)
DNA 1: TCTCCTCTGAGGGCCTGTGGGCAATGAGCAGAAAAG
DNA 2: CTTTTCTGCTCATTGCCCACAGGCCCTCAGAGGAGA
Take B27: the binding signal is 389 PBM fluorescence, median of replicate spots.

B28: Table S2 C row 149 (dsDNA)
DNA 1: TTGGCTTCGGTTCTAACCTCAGAGACTTCTCTAAAT
DNA 2: ATTTAGAGAAGTCTCTGAGGTTAGAACCGAAGCCAA
Consider B28, for which the binding signal was 389 PBM fluorescence, median of replicate spots.

B29: Table S2 C row 46 (dsDNA)
DNA 1: GGTTTACAGCTCATTTGCGGCAGAATCAAAATGGCT
DNA 2: AGCCATTTTGATTCTGCCGCAAATGAGCTGTAAACC
For B29, the binding signal is 392 PBM fluorescence, median of replicate spots.

B30: Table S2 C row 155 (dsDNA)
DNA 1: CTCTTTGGCCTTGTCTGTGGTTCTACCAAATCCCAT
DNA 2: ATGGGATTTGGTAGAACCACAGACAAGGCCAAAGAG
For B30, the binding signal was 414 PBM fluorescence, median of replicate spots.

B31: Table S2 C row 32 (dsDNA)
DNA 1: TAGTTGTATGTGGAAACCACAAAACTGAGTCATAAA
DNA 2: TTTATGACTCAGTTTTGTGGTTTCCACATACAACTA
As for B31, the binding signal is 395 PBM fluorescence, median of replicate spots.

B32: Table S2 C row 191 (dsDNA)
DNA 1: CCAAAAAGAGAGGCAGCCACAAGATCTTCTAAAAGG
DNA 2: CCTTTTAGAAGATCTTGTGGCTGCCTCTCTTTTTGG
For the molecule B32, the binding signal was 380 PBM fluorescence, median of replicate spots.

B33: Table S2 C row 88 (dsDNA)
DNA 1: TGAGGCTCAGTGCTGACCACATTCAAATGACTAGAC
DNA 2: GTCTAGTCATTTGAATGTGGTCAGCACTGAGCCTCA
As to B33, the binding signal was 389 PBM fluorescence, median of replicate spots.

B34: Table S2 C row 100 (dsDNA)
DNA 1: AGATGAATCACAGAGACCACACATGGAGACCCATCT
DNA 2: AGATGGGTCTCCATGTGTGGTCTCTGTGATTCATCT
For the molecule B34, the binding signal is 403 PBM fluorescence, median of replicate spots.

B35: Table S2 C row 85 (dsDNA)
DNA 1: TGTAATCTTTCTTAATGTGGTTAAATTCAAGTTATT
DNA 2: AATAACTTGAATTTAACCACATTAAGAAAGATTACA
B35: the binding signal is 407 PBM fluorescence, median of replicate spots.

B36: Table S2 C row 175 (dsDNA)
DNA 1: CATCTCAAAGCCTCCTGTGGGTGGAGATGGAATGTG
DNA 2: CACATTCCATCTCCACCCACAGGAGGCTTTGAGATG
Regarding B36, the binding signal is 414 PBM fluorescence, median of replicate spots.

B37: Table S2 C row 48 (dsDNA)
DNA 1: TTCAGAGTCAGATCTACCACACACAGCCCAGGAGCC
DNA 2: GGCTCCTGGGCTGTGTGTGGTAGATCTGACTCTGAA
As to B37, the binding signal is 393 PBM fluorescence, median of replicate spots.

B38: Table S2 C row 14 (dsDNA)
DNA 1: CTTGCCTAAGACATGCCCACAGCTGCACAGATAAGA
DNA 2: TCTTATCTGTGCAGCTGTGGGCATGTCTTAGGCAAG
As for B38, the binding signal was 383 PBM fluorescence, median of replicate spots.

B39: Table S2 C row 123 (dsDNA)
DNA 1: ATGCAGAAGGAATGCTGTGGTAGACAGCATTCCTTT
DNA 2: AAAGGAATGCTGTCTACCACAGCATTCCTTCTGCAT
For the molecule B39, the binding signal was 407 PBM fluorescence, median of replicate spots.
